Series [1] can be described thus: Retention of inhibitory activity on storage. The note with it: transformed human AFP preparation. It counts as physicochemical.
Series [2] has as its system estrogen-stimulated growth of mouse uterus. As to conditions: full-length transformed AFP molecule, see references cited; cited from earlier work.

B1: full-length transformed AFP molecule: full-length alpha-fetoprotein transformed by incubation with estradiol to an inhibitor of estrogen-stimulated growth (protein, UniProt P02771 1-609, looked up)
chain: MKWVESIFLIFLLNFTESRTLHRNEYGIASILDSYQCTAEISLADLATIFFAQFVQEATYKEVSKMVKDALTAIEKPTGDEQSSGCLENQLPAFLEELCHEKEILEKYGHSDCCSQSEEGRHNCFLAHKKPTPASIPLFQVPEPVTSCEAYEEDRETFMNKFIYEIARRHPFLYAPTILLWAARYDKIIPSCCKAENAVECFQTKAATVTKELRESSLLNQHACAVMKNFGTRTFQAITVTKLSQKFTKVNFTEIQKLVLDVAHVHEHCCRGDVLDCLQDGEKIMSYICSQQDTLSNKITECCKLTTLERGQCIIHAENDEKPEGLSPNLNRFLGDRDFNQFSSGEKNIFLASFVHEYSRRHPQLAVSVILRVAKGYQELLEKCFQTENPLECQDKGEEELQKYIQESQALAKRSCGLFQKLGEYYLQNAFLVAYTKKAPQLTSSELMAITRKMAATAATCCQLSEDKLLACGEGAADIIIGHLCIRHEMTPVNPGVGQCCTSSYANRRPCFSSLVVDETYVPPAFSDDKFIFHKDLCQAQGVALQTMKQEFLINLVKQKPQITEEQLEAVIADFSGLLEKCCQGQEQEVCFAEEGQKLISKTRAALGV
modifications: full-length estradiol-transformed
For B1, the “time activity is retained” value in series [1] was “one”. The “inhibition of estrogen-stimulated growth” value in series [2] is given as 20-40%.
